Results as given in patent US20200332009A1 (Innovent, published 2020).
Substitutions are numbered along the chain they refer to. Names and notes keep the numbering of the source. Where two headings read alike, the source gives them in different places. One block for each binder: values may come before it.

Tests used:
human LAG-3-His = biological target: T1, human LAG-3-His (human, UniProt P18627 23-450); test: biological optical interferometry (ForteBio), antibody on AHQ tip, human LAG-3-His 100 nM in solution, univalent, 1:1 model
T1 construct: also called hLAG-3; human LAG-3 antigen (ArcoBiosystems); not shown: His tag
T1 sequence (looked up): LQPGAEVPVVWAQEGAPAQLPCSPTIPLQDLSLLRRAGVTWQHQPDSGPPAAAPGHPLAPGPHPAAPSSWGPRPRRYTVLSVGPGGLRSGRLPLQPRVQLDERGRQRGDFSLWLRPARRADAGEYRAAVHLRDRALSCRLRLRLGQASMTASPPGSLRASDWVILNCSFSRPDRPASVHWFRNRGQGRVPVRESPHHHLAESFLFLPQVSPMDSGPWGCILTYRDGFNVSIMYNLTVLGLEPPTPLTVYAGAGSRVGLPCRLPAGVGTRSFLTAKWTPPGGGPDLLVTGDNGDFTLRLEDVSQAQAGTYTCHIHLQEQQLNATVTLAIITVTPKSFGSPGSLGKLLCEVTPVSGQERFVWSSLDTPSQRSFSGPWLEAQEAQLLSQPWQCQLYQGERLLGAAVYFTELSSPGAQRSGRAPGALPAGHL
Experimental: The equilibrium dissociation constant (KD) for binding of ADI31853 to human LAG-3 (hLAG-3) was measured by biological optical interferometry (ForteBio). A ForteBio affinity assay of prior art was performed (Estep, P., et al, High throughput solution based measurement of antibody-antigen affinity and epitope binning. MAbs, 2013.5(2):270-8). Briefly, the sensor was equilibrated offline in assay buffer for 30 minutes, and on-line detection was then conducted for 60 seconds to establish a baseline. The purified antibody obtained as described above was loaded on-line onto an AHQ sensor (ForteBio) for ForteBio affinity assay. The sensor with the loaded antibody was then exposed to 100 nM of a human LAG-3 antigen (ArcoBiosystems) for 5 minutes before transferring the sensor to the assay buffer for dissociation for 5 minutes for dissociation rate measurement. Kinetic analysis was performed using a 1:1 binding model.

[1] = biological target: PD-L1 on CHOK1-PDL1 cells (Promega PD-1/PD-L1 Blockade Bioassay) (UniProt Q9NZQ7 19-290, limits assumed); test: cell-based or functional assay
[2] = biological target: T2, human PD-L1 overexpressed on CHO cells (CHO-PDL1) (human, UniProt Q9NZQ7 19-290); test: flow cytometry (FACS) on CHO-PDL1 cells
T2 construct: whole, on cells; also called CHO cells overexpressing human PD-L1

[3] = biological target: T3, human PD-L1 (purchased from Acrobiosystems) (human, UniProt Q9NZQ7 19-238); test: biological optical interferometry (ForteBio), antibody on sensor, antigen in solution
T3 construct: also called hPD-L1
Experimental: (§1) SD buffer, antibodies, and antigens (including human PD-L1, mouse PD-L1 and Macaca fascicularis PD-L1, all purchased from Acrobiosystems) each of 100 μL were added to 96-well black polystyrene half area microplates (Greiner, 675076). The sensors were arranged according to the positions of the samples. The instrument settings were as follows: the operation procedures were Baseline, Loading ˜1 nm, Baseline, Association, and Dissociation. The run time of each procedure was dependent on the rates of association and dissociation. The rotation speed was 400 rpm, and the temperature was 30° C. The KD values were analyzed by ForteBio analysis software.
The equilibrium dissociation constant (KD) binding of the humanized antibodies of different Fc subtypes of the invention to human PD-L1 was determined by ForteBio. The ForteBio affinity assay was shown in Example 2.

[4] = biological target: T3, human PD-L1 (purchased from …); test: as above; remark: listed apart in the source
Experimental: The equilibrium dissociation constant (KD) for binding of the antibody of the invention to human PD-L1 was determined by biological optical interferometry (ForteBio). A ForteBio affinity assay of prior art was performed (Estep, P., et al, High throughput solution based measurement of antibody-antigen affinity and epitope binning. MAbs, 2013.5(2):270-8).
as §1

[5] = biological target: T2, human PD-L1 overexpressed on CHO cells …; test: flow cytometry (FACS) on CHO-PDL1 cells; the table gives no unit, the axis is Con(nM); the text gives this value to 4-79.2
Experimental: (§2) CHO-PDL1 cells were counted, diluted to 1×10⁶ cells/mL, and added to each well of a U-shaped bottom 96-well plates at 100 μL/well. The suspension was centrifuged at 400 g for 5 min, and the supernatant was discarded. […] The cells were resuspended to a volume of 100 μL/well, and then left on ice for 30 min. The suspension was centrifuged at 400 g for 5 min, and the supernatant was discarded. The cells were washed once with PBS. The mixture was centrifuged at 400 g for 5 min, and the supernatant was discarded. 100 μL of FITC-labeled secondary antibody for anti-mouse-Fab (Jackson Immuno Research) (diluted in PBS in 1:500) was added per well, and 100 μL of FITC-labeled secondary antibody for anti-human-Fab (Jackson Immuno Research) was added to the cells to which the positive control antibody was added. The cells were incubated for 30 min on ice in the dark. The cells were centrifuged at 400 g for 5 min with the supernatant being discarded, and were washed once with a PBS. The cells were resuspended with 100 μL of 1×PBS, and detected by FACS.

[6] = biological target: T2, human PD-L1 overexpressed on CHO cells …; test: flow cytometry (FACS) on CHO-PDL1 cells; the table gives no unit, the axis is Con(nM); the text gives this value to 4-26.6
Experimental: as §2

T3 sequence (Q9NZQ7 19-238 limits assumed): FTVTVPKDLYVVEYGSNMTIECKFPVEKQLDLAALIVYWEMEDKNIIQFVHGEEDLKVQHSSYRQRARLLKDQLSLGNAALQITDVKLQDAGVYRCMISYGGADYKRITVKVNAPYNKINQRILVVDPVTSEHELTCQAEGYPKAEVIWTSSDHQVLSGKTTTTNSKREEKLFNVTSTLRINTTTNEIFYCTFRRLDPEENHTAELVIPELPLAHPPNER
Chain of PD-L1 on CHOK1-PDL1 cells (Promega PD-1/PD-L1 Blockade Bioassay) (Q9NZQ7 19-290 limits assumed): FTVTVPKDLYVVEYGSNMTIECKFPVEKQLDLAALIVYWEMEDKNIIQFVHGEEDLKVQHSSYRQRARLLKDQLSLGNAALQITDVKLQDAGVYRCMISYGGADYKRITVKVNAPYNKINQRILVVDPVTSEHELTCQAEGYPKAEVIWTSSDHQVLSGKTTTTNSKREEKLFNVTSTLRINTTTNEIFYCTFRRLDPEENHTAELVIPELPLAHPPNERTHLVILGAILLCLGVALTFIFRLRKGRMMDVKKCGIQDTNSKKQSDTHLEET
T2 sequence (Q9NZQ7 19-290): as the sequence (Q9NZQ7 19-290 limits assumed) above

B2: HZ3266-IgG1N297A (antibody)
heavy: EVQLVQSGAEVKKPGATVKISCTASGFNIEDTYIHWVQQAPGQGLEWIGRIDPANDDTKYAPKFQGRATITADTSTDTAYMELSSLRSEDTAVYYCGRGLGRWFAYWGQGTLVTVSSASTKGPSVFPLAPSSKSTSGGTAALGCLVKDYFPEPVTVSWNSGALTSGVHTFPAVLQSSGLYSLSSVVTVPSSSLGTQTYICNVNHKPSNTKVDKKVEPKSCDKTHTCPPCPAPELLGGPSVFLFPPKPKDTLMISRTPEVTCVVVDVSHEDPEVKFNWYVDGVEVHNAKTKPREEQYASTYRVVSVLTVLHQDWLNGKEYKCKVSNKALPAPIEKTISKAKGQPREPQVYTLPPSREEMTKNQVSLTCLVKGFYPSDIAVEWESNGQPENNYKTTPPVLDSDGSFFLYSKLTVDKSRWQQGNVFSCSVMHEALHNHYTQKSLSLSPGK
light: GIVMTQSPDSLAVSLGERATINCKASQDVINAVAWYQQKPGQSPKLLIYSASNRYTGVPDRFSGSGSGTDFTLTISSLQAEDLAVYYCQQHYSPPLTFGGGTKVEIKRTVAAPSVFIFPPSDEQLKSGTASVVCLLNNFYPREAKVQWKVDNALQSGNSQESVTEQDSKDSTYSLSSTLTLSKADYEKHKVYACEVTHQGLSSPVTKSFNRGEC
notes: Humanized form of 3-266.1, human IgG1 with N297A, kappa
EC50 of the NFAT luciferase reporter signal (blockade of PD-1 on Jurkat-PD1 cells binding PD-L1 on CHOK1-PDL1 cells) [1]: 0.967 nM | EC50 [2]: 1.78 nM | Kd [3]: 0.724 nM

B5: 4-26.6 (antibody, human IgG1, kappa, N297A, V domains shown)
VH: QVQLKESGPSLVKPSQTLSLTCSVTGDSITSGYWNWIRKFPGNKLEYMGYISYSGSTYHNPSLKSRISITRDTSKNQFYLQLNSVTKEDTATYYCARGDLWPPWFAYWGQGTLVTVSA
VL: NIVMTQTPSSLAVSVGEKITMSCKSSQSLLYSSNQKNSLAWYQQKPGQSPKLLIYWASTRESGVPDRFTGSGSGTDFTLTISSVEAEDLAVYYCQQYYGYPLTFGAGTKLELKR
notes: Same remark on anti-mouse detection reagents as for 3-266.1; also called chimeric antibody 4-26.6
EC50 [2]: 1.99 nM | Kd [4]: 3.85 nM | EC50 [5]: 2.6 nM

B8: 4-48.5 (antibody, human IgG1, kappa, N297A, V domains shown)
VH: EVQLQQSGAELARPGASVKMSCKASGYTFTTYTMHWVKQRPGQGLEWIGNINPNSDYAIYNQKFKDKATLTADKSSNTAYMQLSGLTSEDSAVYYCAKQSFDYWGQGTTLTVSS
VL: DIVLTQSPASLAVSLGQRATISCRASESVEFYGTSLLQWYQQKPGQPPKLLIYAASNVESGVPARFSGSGSGTDFSLNIHPVEVDDVALYFCHQGRKVPYTFGGGTKLEIKR
notes: Same remark on anti-mouse detection reagents as for 3-266.1; also called chimeric antibody 4-48.5
EC50 [2]: 2 nM | Kd [4]: 1.23 nM

B9: 3-266.1 (antibody, human IgG1, kappa, N297A, V domains shown)
VH: EVQLQQSVAELVKPGASVKLSCTASGFNIEDTYIHWVKQRPEQGLEWIGRIDPANDDTKYDPKFQGKATITADTSSNTAYLQLSSLTPEDTAVYYCGRGLGRWFAYWGQGTLVTVSA
VL: SIVMTQSHKFMSTSIGDRVNISCKASQDVINAVAWCQQKPGQSPKLLIYSASNRYTGVPDRFTGSGSGTDFTFTISSVQAEDLAVYYCQQHYSPPLTFGGGTKLELKR
notes: also called chimeric antibody 3-266.1
EC50 [2]: 2.14 nM | Kd [4]: 0.98 nM

More lines, now with the values ahead:

Kd (human LAG-3-His): 0.622 nM | koff (human LAG-3-His): 0.0002 s⁻¹ | kon (human LAG-3-His): 322000 M⁻¹ s⁻¹
B1: ADI-31853 (antibody, human IgG4 S228P, kappa, F234A L235A, V domains shown)
VH: QLQLQESGPGLVKPSETLSLTCTVSGGSIYSESYYWGWIRQPPGKGLEWIGSIVYSGYTYYNPSLKSRVTISVDTSKNQFSLKLSSVTAADTAVYYCARVRTWDAAFDIWGQGTMVTVSS
VL: DIQMTQSPSSLSASVGDRVTITCQASQDISNYLNWYQQKPGKAPKLLIYDASNLETGVPSRFSGSGSGTDFTFTISSLQPEDIATYYCQQVLELPPWTFGGGTKVEIKR
notes: also called anti-human-LAG-3 antibody

EC50 [2]: 1.86 nM | Kd [3]: 1.32 nM
B3: HZ3266-IgG4PAAK (antibody)
heavy: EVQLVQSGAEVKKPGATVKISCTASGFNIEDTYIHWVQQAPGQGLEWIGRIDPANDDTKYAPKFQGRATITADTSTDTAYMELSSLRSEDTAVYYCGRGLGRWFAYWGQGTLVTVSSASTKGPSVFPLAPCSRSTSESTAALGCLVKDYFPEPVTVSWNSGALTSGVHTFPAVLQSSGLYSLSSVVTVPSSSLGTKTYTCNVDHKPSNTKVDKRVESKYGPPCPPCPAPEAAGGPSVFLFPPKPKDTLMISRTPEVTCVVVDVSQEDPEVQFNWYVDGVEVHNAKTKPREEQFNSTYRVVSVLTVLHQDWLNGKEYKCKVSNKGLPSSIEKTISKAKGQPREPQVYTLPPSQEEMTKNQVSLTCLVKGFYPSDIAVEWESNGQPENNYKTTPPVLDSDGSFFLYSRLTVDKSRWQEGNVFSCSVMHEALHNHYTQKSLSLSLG
light: B2 light
notes: Humanized form of 3-266.1, mutated human IgG4 constant region, kappa; also called HZ3266-G4PAAK; HZ3266-IgG4PAK

EC50 of the NFAT luciferase reporter signal (blockade of PD-1 on Jurkat-PD1 cells binding PD-L1 on CHOK1-PDL1 cells) [1]: 0.623 nM | EC50 [2]: 1.81 nM | Kd [3]: 0.935 nM
B4: HZ3266-IgG1 (antibody)
heavy: not shown
light: B2 light
notes: Humanized form of 3-266.1, human IgG1, kappa

EC50 [2]: 2.6 nM | Kd [4]: 7.56 nM | EC50 [6]: 1.99 nM
B6: 4-79.2 (antibody, human IgG1, kappa, N297A, V domains shown)
VH: EVQLQQSGPSLVKPSQTLSLTCSVTGDSITSGYWNWIREFPGNKLEYLGYISYTGSTYYNPSLKSRISITRDTSKNQYSLQLNSVTTEDTATYYCAKAPRWLSAMDYWGQGTSVTVSS
VL: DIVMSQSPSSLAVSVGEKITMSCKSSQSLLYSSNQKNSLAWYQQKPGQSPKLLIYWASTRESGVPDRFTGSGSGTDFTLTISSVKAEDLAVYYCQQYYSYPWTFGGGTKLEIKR
notes: Same remark on anti-mouse detection reagents as for 3-266.1; also called chimeric antibody 4-79.2

EC50 of the NFAT luciferase reporter signal (blockade of PD-1 on Jurkat-PD1 cells binding PD-L1 on CHOK1-PDL1 cells) [1]: 0.683 nM | EC50 [2]: 1.56 nM | Kd [3]: 3.17 nM
B7: HZ4485-IgG1N297A (antibody, V domains shown)
VH: QVQLVQSGAEVAKPGASVKVSCKASGYTFTTYTMHWVRQRPGQGLEWIGNINPNSDYAIYAQKFQGRATMTADKSTNTAYMELSSLRSEDSAVYYCAKQSFDYWGQGTLVTVSS
VL: B8 VL with L15P, S22T, S76T, N78T, H80N, V84A, V87T, L89N, F91Y, G104Q
notes: Humanized form of 4-48.5, human IgG1 with N297A, kappa
